Measured values taken from patent US20090062512A1, “Comparative ligand mapping from MHC class I positive cells” (priority 2000, published 2009).
Where “and” joins values, the source holds several entries; their conditions need not be identical. Equal values may be shown once. Read-outs that look alike come from different tables or passages of the source.

Legend:
Type in all cases: cell-based
[1] = biological target: B*0702 class I MHC molecules in cells infected with the PR8 strain of influenza A virus (Homo sapiens, UniProt P01889)
[2] = biological target: A*0201 class I MHC molecules in cells infected with the PR8 strain of influenza A virus (Homo sapiens, UniProt P04439, D140Y/D185E/D98H/E176V/E277Q/G131W/G231S/I119V/I121R/I166T/I218V/L300P/L318F/N151K/N90K/P208A/P217A/Q86G/Q94H/R138H/R169H/T345S)
[3] = biological target: sHLA-A*0201 from MCF-7, MDA-MB-231, BT-20 and MCF10A (Homo sapiens, UniProt P04439, D140Y/D185E/D98H/E176V/E277Q/G131W/G231S/I119V/I121R/I166T/I218V/L300P/L318F/N151K/N90K/P208A/P217A/Q86G/Q94H/R138H/R169H/T345S); assay: MS comparative analysis of sHLA-A*0201 peptides, breast cancer cell lines vs nontumorigenic MCF10A; details: for FOLD INCREASE BT-20 over MCF10A / FOLD INCREASE MCF-7 over MCF10A / FOLD INCREASE MDA-MB-231 over MCF10A: peptide epitope presented on sHLA-A*0201; for FOLD INCREASE BT-20 over MCF10A: BT-20 vs nontumorigenic MCF10A; for FOLD INCREASE MCF-7 over MCF10A: MCF-7 vs nontumorigenic MCF10A; for FOLD INCREASE MDA-MB-231 over MCF10A: MDA-MB-231 vs nontumorigenic MCF10A
[4] = PR8B0702: presentation by sHLA B*0702, influenza PR8 infected vs uninfected cells

Substance	Fold Increase [2]	further results
APGAPPRTL	–	Fold Increase [1]: 1.5
YAYDGKDYI	Unique	–
APEEHPVLL (listed as Homo sapiens)	–	Fold Increase [1, 4]: 1.92
LLLDVPTAAV	1.95	–
KPQDYKKR	–	Fold Increase [1]: 2.9
KIADFGWSV	2.26	–
APRPPPKM	–	Fold Increase [1]: 2.9
SPRSGLIRV	–	Fold Increase [1]: 1.53
GPLDIEWLI (listed as Homo sapiens)	–	Fold Increase [1, 4]: 2.2
FLPSYIIDV	2.57	–
IMLEALERV	1.64	–
SLFGGSVKL	–	FOLD INCREASE BT-20 over MCF10A [3]: 1.3; FOLD INCREASE MCF-7 over MCF10A [3]: 5; FOLD INCREASE MDA-MB-231 over MCF10A [3]: 2.6
GIVEGLMTTV	3.1	–
RVPPPPPIA	6.54	–
AQYEHDLEVA	–	FOLD INCREASE BT-20 over MCF10A [3]: 8; FOLD INCREASE MCF-7 over MCF10A [3]: 34; FOLD INCREASE MDA-MB-231 over MCF10A [3]: 2
ILMEHIHKL	5.46	–
ALNDHFVKL	23.02	–
TIAQLHAV	Unique	–
GLMTTVHAIT	2.5	–
SPGPPTRKL	–	Fold Increase [1]: 1.9
HLNEKRRF	–	Fold Increase [1]: 2.02
KILDLETQL	–	FOLD INCREASE BT-20 over MCF10A [3]: 7; FOLD INCREASE MCF-7 over MCF10A [3]: 9; FOLD INCREASE MDA-MB-231 over MCF10A [3]: 1.4
FAITAIKGV	3.49	–
TLWGIQKEL	3.27	–

Substance	Fold Increase [2]	further results
TLAKYLMEL	6.81	–
GLIENDALL	1.71	–
APAGRKVGL	–	Fold Increase [1]: 1.5
GLDKQIQEL	4.09	–
AMIELVERL	1.81	–
GIWGFIKGV	6.1	–
APKRPPSAF	–	Fold Increase [1]: 1.82
LPRGSSPSVL	–	Fold Increase [1]: 1.57
AVGKVIPEL	12.46	–
AIVDKVPSV	1.88	–
SLLDIIEKV	2.56	–
ALMDEVVKA	2.59	–
VMDSKIVQV	22.84	–
TQFVRFDSD	–	Fold Increase [1]: 1.64
RPSGKGIVEF	–	Fold Increase [1]: 13.7
VFLKPWI	–	Fold Increase [1]: 1.62
RLYPWGVVEV	2.79	–
GVAESIHLWEV	2.89	–
GLMTTVHAITATQ	Unique	–
APRGTGIVSA	–	Fold Increase [1]: 2.2
YMEEIYHRI	3.98	–
KVFDPVPVGV	1.74	–
ILSGVVTKM	1.74	–
ALVSSLHLL	1.51	–

Substance	Fold Increase [2]	further results
RPAGKGSITI	–	Fold Increase [1]: 1.8
GLGPTFKL	unique	–
IIMLEALERV	13.68	–
VINDVRDIFL	1.71	–
KLFPDTPLAL	Unique	–
SPQEDKEVI	–	Fold Increase [1]: 4.19
YPFKPPKVAF	–	Fold Increase [1]: 3.27
RPKANSA	–	Fold Increase [1]: 1.8
RLDDVSNDV	2.55	–
FLASESLIKQIPR	Unique	–
GLQDFDLLRV	2.29	–
RVEPLRNEL	–	Fold Increase [1]: 1.95
TLAEVERLKGL	Unique	–
AARPATSTL	–	Fold Increase [1]: 5.1
KIAPNTPQL	2.63	–
IPSIQSRGL	–	Fold Increase [1]: 1.6
ALLDKLYAL	3.1	–
SLFEGTWYL	2.36	–
YPKRPLLGL	–	Fold Increase [1]: 1.61
ALNEKLVNL	1.52	–
RPQGGQDIL	–	Fold Increase [1]: 2.24
LVFQPVAEL	–	Fold Increase [1]: 4.33
ALLSAVTRL	Unique	–
SLAKIYTEA	5.38	–

Substance	Fold Increase [2]	further results
FLFNTENKL	1.85	–
NPASKVIAL	–	Fold Increase [1]: 1.64
SPKIRRL	–	Fold Increase [1]: 1.63
VLFDVTGQVRL	2.48	–
LLDVPTAAV	5.18	–
ALQELLSKGL	2.8	–
TLLEDGTFKV	1.67	–
GMYVFLHAV	2.73	–
SIIGRLLEV	56.92	–
KLFDDDETGKISF	Unique	–
YAYDGKDYIA	1.6	–
GPPGTGKTAL	–	Fold Increase [1]: 1.5
TLAEIAKVEL	3.32	–
FLLEKGYEV	1.81	–
YLDKVRALE	Unique	–
NLPLSNLAI	–	Fold Increase [1]: 4.3
GIDSSSPEV	Unique	–
SLDQPTQTV	9.84	–
LLQEVEHQL (listed as Homo sapiens)	–	presentation by HLA A*0201 of tumorigenic vs nontumorigenic cell lines ([3]; MCF-7, MDA-MB-231, BT-20 vs MCF10A): found only in the MCF-7 peptide pool
GPREAFRQL	–	Fold Increase [1]: 6.03
APRPVAVAV	–	Fold Increase [1]: 1.5
SPAKIHVF	–	Fold Increase [1]: 2.8
TPEQIFQN	–	Fold Increase [1]: 1.51
LMTTVHAITAT	Unique	–

Substance	Fold Increase [2]	further results
GMYIFLHTV	2.32	–
KLLEGEESRISL	2.1	–
ALASHLIEA	1.67	–
EPRPPHGEL	–	Fold Increase [1]: 2.7
SLFPGKLEV	–	FOLD INCREASE BT-20 over MCF10A [3]: 2; FOLD INCREASE MCF-7 over MCF10A [3]: 5; FOLD INCREASE MDA-MB-231 over MCF10A [3]: 2.2
FIQTQQLHAA	Unique	–
SPGIPNPGAPL	–	Fold Increase [1]: 1.84
KMLEKLPEL	2.14	–
GPYPYTL	–	Fold Increase [1]: 2.01
SMLEDVQRA	2.4	–
GLMTTVHAITAT	Unique	–
KLIGDPNLEFV	2.82	–
KLDPTKTTL	2.93	–
GVLDNIQAV	Unique	–
TLWDIQKDLK	1.64	–
VLEDPVHAV	3.91	–
ARPATSL	–	Fold Increase [1]: 2.2
SLYEMVSRV	1.87	–
VLLSDSNLHDA	10.95	–
SMTLAIHEI	2.11	–
GLWDKFSEL	2.59	–
SMMDVDHQI	3.58	–
GVIAEILRGV	1.56	–
FLAEEGFYKF	2.98	–

Substance	Fold Increase [2]	further results
FMFDEKLVTV	1.99	–
SPVPSRPL	–	Fold Increase [1]: 2.91
AVSDGVIKV	8.98	–
TLIDLPGITKV	6.48	–
ILCPMIFNL	2.51	–
GMASVISRL	Unique	–
GPRSSLRVL	–	Fold Increase [1]: 3.16
ALVEIGPRFVL	10.83	–
KLMELHGEGSS	Unique	–
LLDANLNIKI	2.78	–
GLAKLIADV	2.91	–
GVYGDVHRV	2.9	–
KLDEGNSL	4.32	–
LLDVTPLSL	9.68	–
SPPSKPTVL	–	Fold Increase [1]: 1.9
GLIDGRLTI	1.67	–
GLATDVQTV	3.5	–
KMWDPHNDPNA	Unique	–
NLGSPRPL	–	Fold Increase [1]: 5.6
LLPGENINLL	–	Fold Increase [1]: 7.13
KLLDFGSLSNL	3.57	–
RPTGGVGAV	–	Fold Increase [1]: 2.7
ILDKKVEKV	Unique	–
KVPEWVDTV	5.94	–

Substance	Fold Increase [2]	further results
RLTPKLMEV	2.2	–
RLIDLGVGL	2.03	–
RPGLKNNL	–	Fold Increase [1]: 1.5
YQFTGIKKY	–	Fold Increase [1]: 2.3
ALDKATVLL	2.13	–
LPKPPGRGV	–	Fold Increase [1]: 1.9
TLDEYTTRV	3.74	–
ALLAGSEYLKL	1.51	–
APPPPPKAL	–	Fold Increase [1]: 2.29
KLQEFLQTL	2.3	–
LLDVVHPAA	3.43	–
FLGRINEI	1.99	–
ALWEAKEGGLL	1.54	–
TLWPEVQKL	2.97	–
YLDIKGLLDV	2.44	–
TLIGLSIKV	2.28	–
GLDIDGIYRV	1.95	–
SMPDFDLHL	1.83	–
ITAPPSRVL	–	Fold Increase [1]: 1.98
GLAEDSPKM	2	–
SLWSIISKV	3.06	–
PKFEVIEKPQA	–	Fold Increase [1]: 3.6
TLQEVFERATF	Unique	–
ILYDIPDIRL	5.99	–

Substance	Fold Increase [2]	further results
KAPPAPLAA	Unique	–
LPSSGRSSL	–	Fold Increase [1]: 2
KLEEIIHQI	2.08	–
KIFEMGPVFTL	6.45	–
AIIGGTFTV	4.17	–
QLLGSAHEV	4.98	–
GLLDPSVFHV	2.17	–
LLLDVPTAAVQA	6.24	–
DPMKARVVL	–	Fold Increase [1]: 1.87
ALDEKLLNI	1.61	–
APKIGPLGL	–	Fold Increase [1]: 1.54
ILGYTEHQV	23.91	–
NDHFVKL	7.75	–
KMYEEFLSKV	1.8	–
VVQDGIVKA	Unique	–
ALSDGVHKI	1.88 and 2.36	–
APNRPPAAL	–	Fold Increase [1]: 1.5
GLMTTVHAITA	3.2	–
KIIDEDGLLNL	1.56	–
LLDVVHPA	33.09	–
RPPPIGAEV	–	Fold Increase [1]: 2.9
RLWPKIQGL	Unique	–
RIVPRFSEL	–	Fold Increase [1]: 1.54
